What all share (assay): ELISA, coated antigen, antibody at 100 ng/ml
On the technique in general: ELISA stands for enzyme-linked immunosorbent assay.

One assay has as its target T1, Nectin-2 (UniProt Q92692 32-360, limits assumed).
T1 construct: Bought recombinant protein; also called CD112; PVRL-2
T1 sequence (looked up): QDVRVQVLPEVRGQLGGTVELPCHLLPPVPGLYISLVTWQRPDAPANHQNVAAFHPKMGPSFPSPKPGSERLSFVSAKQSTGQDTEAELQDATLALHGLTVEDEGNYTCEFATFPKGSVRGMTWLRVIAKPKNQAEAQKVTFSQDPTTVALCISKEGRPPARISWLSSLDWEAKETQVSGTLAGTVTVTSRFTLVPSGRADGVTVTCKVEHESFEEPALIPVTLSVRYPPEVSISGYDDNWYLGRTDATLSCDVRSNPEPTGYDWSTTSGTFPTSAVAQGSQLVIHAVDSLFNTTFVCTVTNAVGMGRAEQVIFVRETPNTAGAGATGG
On the procedure: (§1) Coating: Nectin-1, Nectin-2, Nectin-3, Nectin-4, Nectin-like-1, Nectin-like-2, Nectin-like-3, Nectin-like-4, and Nectin-like-5 were diluted to 5 μg/ml in coating buffer (carbonate buffer, pH 9.6) respectively. A 96-well plate was coat with 100 μl per well and incubated overnight at 2-8° C.;
(§2) Sample loading: The plate was taken out, patted dry, and washed twice with 200 μl/well of PBST, then patted dry. The Nectin-4 antibodies prepared in Example 1 (antibody MM11, antibody R012, and antibody R036) were diluted with 1% BSA/PBST to concentrations of 10 μg/ml, 1 μg/ml, 100 ng/ml, and 10 ng/ml, respectively. 1% BSA/PBST solution for dilution was set as a blank control. 100 μl per well was added to the 96-well plate, and incubated at room temperature for 2 hours;
(§3) Reaction termination and plate reading: 100 μl/well of 1 mol/L H3PO4 was added to terminate the reaction and the plated was read. The absorbances of wells in the plate at 450 nm with 650 nm as reference wavelength were read and recorded as OD_{450 nm-650 nm}.

The target of the next assay is T2, Nectin-like-3 (UniProt Q8N3J6 25-367, limits assumed).
T2 construct: Bought recombinant protein; also called CADM2; IgSF4D
T2 sequence (looked up): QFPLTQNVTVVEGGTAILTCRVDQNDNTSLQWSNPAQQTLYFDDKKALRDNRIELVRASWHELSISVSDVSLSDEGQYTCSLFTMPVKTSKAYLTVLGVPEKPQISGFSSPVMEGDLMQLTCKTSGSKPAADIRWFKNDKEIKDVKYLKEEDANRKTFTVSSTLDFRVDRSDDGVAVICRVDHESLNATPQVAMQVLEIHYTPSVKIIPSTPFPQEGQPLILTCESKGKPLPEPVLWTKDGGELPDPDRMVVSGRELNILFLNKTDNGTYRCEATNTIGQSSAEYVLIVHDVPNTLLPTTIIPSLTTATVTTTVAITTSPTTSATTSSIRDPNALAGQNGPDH
As for the experimental part: as §1, §2, §3

The target in another assay is T3, Nectin-3 (UniProt Q9NQS3 58-404, limits assumed).
T3 construct: Bought recombinant protein; also called CD113; PVRL-3
T3 sequence (Q9NQS3 58-404 limits assumed): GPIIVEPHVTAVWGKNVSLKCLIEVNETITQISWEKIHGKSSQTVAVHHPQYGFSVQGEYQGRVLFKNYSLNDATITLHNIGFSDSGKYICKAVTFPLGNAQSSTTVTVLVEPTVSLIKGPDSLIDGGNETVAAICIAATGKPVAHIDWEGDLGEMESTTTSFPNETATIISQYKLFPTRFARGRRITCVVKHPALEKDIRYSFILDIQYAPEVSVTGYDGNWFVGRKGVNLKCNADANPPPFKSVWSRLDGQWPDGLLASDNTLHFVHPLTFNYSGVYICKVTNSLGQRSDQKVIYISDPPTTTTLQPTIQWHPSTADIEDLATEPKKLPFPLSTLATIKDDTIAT
As for the experimental part:
as §1, §2, §3

The target of another assay is T4, Nectin-1 (UniProt Q15223 31-334, limits assumed).
T4 construct: Bought recombinant protein; also called CD111; PVRL-1
T4 sequence (looked up): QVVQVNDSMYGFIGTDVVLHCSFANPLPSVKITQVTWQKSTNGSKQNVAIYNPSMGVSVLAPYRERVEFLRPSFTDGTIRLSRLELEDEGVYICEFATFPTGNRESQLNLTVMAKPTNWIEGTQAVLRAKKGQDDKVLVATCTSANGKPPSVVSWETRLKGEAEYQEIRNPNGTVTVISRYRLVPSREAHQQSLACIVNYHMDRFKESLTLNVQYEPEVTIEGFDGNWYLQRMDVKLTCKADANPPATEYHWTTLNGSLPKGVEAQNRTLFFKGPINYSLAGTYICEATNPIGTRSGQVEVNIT
As for the experimental part:
as §1, §2, §3

For the next assay, the target named is T5, Nectin-like-5 (UniProt P15151 21-343).
T5 construct: Bought recombinant protein; also called CD155; PVR
T5 sequence (looked up): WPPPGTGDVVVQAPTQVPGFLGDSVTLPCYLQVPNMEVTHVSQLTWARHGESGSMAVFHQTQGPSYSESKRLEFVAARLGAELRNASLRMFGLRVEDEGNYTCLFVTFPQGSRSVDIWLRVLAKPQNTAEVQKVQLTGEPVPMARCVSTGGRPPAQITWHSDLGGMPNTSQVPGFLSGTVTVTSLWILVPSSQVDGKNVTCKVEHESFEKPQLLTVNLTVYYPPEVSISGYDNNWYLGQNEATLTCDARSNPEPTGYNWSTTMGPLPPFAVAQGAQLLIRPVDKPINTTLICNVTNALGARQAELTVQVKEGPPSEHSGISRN
As for the experimental part:
as §1, §2, §3

A further assay has as its target T6, Nectin-like-2 (UniProt Q9BY67 45-374, limits assumed).
T6 construct: Bought recombinant protein; also called CADM1; IgSF4
T6 sequence (looked up): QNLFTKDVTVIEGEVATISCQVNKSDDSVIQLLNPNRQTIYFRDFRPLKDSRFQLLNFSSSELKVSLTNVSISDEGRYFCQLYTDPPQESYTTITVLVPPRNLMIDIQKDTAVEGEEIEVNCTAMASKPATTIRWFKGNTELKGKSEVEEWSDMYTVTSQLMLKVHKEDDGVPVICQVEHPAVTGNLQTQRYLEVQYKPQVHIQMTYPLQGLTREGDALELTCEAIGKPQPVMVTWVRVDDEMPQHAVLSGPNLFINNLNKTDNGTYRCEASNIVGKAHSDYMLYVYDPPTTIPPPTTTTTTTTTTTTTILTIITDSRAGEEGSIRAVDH
On the procedure:
as §1, §2, §3

B1: Antibody MM11 (antibody, mouse IgG1, kappa, V domains shown)
VH: DVQLQESGPGLVKPSQSLSLTCSVTGYSITSNFYWNWIRQFPGNRLEWMGYISYDGSNNYNPSLKNRISISRDTSKNQFFLKLNSVTTEDTATYYCVRADYWGQGTLVTVSA
VL: DTVMTQTPLSLPVSLGDQASISCRSSQSLESSDGHAYLNWYLQKPGQSPQLLIYRVSNRFSGVLHRFSGSGSGTDFTLKISRVEAEDLGVYFCLQFTHVPFTFGSGTKLEIKR
notes: Mouse monoclonal antibody from hybridoma; also called Nectin-4 mouse monoclonal antibody MM11; mouse antibody MM11
B1: the OD detection value with Nectin-2 was 0.007 OD450 nm-650 nm; with Nectin-like-3, 0.031 OD450 nm-650 nm; with Nectin-3, 0.014 OD450 nm-650 nm; with Nectin-1 it was 0.008 OD450 nm-650 nm; with Nectin-like-5 it was 0.007 OD450 nm-650 nm; in the assay with Nectin-like-2 it was 0.007 OD450 nm-650 nm.

B2: Antibody R012 (antibody, V domains shown)
VH: SKSVEESGGRLVTPGTPLTLTCTVSGFSLSTYAMSWVRQAPGKGLEYIGIISGRGTTYYASWLKGRFTISKTSTTVDLKITSPTTEDTATYFCARDAGISDVYTGYFNLWGQGTLVTVSS
VL: QPVLAQLPSASAALGASAKLTCTLSSAHRTYTIAWYQQQQGEAPRYLMMLKSDGSYTKGTGVPDRFSGSSSGADRYLIISSVQAADEADYYCGADDSGGYVFGGGTQLTVTG
notes: Rabbit monoclonal antibody from phage display; also called Nectin-4 rabbit monoclonal antibody R012; rabbit antibody R012
Regarding B2, the OD detection value is 0.007 OD450 nm-650 nm with Nectin-2; 0.008 OD450 nm-650 nm with Nectin-like-3; 0.007 OD450 nm-650 nm with Nectin-3; 0.007 OD450 nm-650 nm in the assay with Nectin-1; 0.008 OD450 nm-650 nm in the assay with Nectin-like-5; 0.008 OD450 nm-650 nm in the assay with Nectin-like-2.

B3: Antibody R036 (antibody, V domains shown)
VH: SQSVEESGGRLVTPGTPLTLTCTVSGFSLSSYAMSWVRQAPGKGLEYIGIIGGRGTTYYAIWAKGRFTISKTSTTVDLKITSPTTEDTATYFCARDAGTTYVGTTYVATGYFNLWGQGTLVTVSS
VL: QPVLTQPPSASAALGASAKLTCTLSSAHKTYTIAWYQQQQGEAPRYLMILKSDGSYTRGTGVPDRFSGSSSGADRYLIISSVQADDEADYYCGADDSGGYVFGGGTQLTVTG
notes: Rabbit monoclonal antibody from phage display; also called Nectin-4 rabbit monoclonal antibody R036; rabbit antibody R036
On to B3, for which the OD detection value in the assay with Nectin-2 turned out to be 0.007 OD450 nm-650 nm; with Nectin-like-3, 0.007 OD450 nm-650 nm; in the assay with Nectin-3, 0.007 OD450 nm-650 nm; with Nectin-1, 0.007 OD450 nm-650 nm; in the assay with Nectin-like-5, 0.009 OD450 nm-650 nm; in the assay with Nectin-like-2 it was 0.007 OD450 nm-650 nm.

Values taken from US20260265354A1 (JIANGSU MABWELL HEALTH PHARMACEUTICAL R AND D, published 2026).
